# Experimental data published in patent US20220362355.
# B1: recombinant protein HtrA2 (residues 134-458 of the HtrA2 amino acid sequence) (protein)
# chain: AVPSPPPASPRSQYNFIADVVEKTAPAVVYIEILDRHPFLGREVPISNGSGFVVAADGLIVTNAHVVADRRRVRVRLLSGDTYEAVVTAVDPVADIATLRIQTKEPLPTLPLGRSADVRQGEFVVAMGSPFALQNTITSGIVSSAQRPARDLGLPQTNVEYIQTDAAIDFGNSGGPLVNLDGEVIGVNTMKVTAGISFAIPSDRLREFLHRGEKKNSSSGISGSQRRYIGVMMLTLSPSILAELQLREPSFPDVQHGVLIHKVILGSPAHRAGLRPGDVILAIGEQMVQNAEDVYEAVRTQSQLAVQIRRGRETLTLYVTPEVTE
# Target: fibrin clot obtained by reacting fibrinogen with thrombin
protein,measurement,value
B1,"A415 (dissolution of the fibrin clot, spectrophotometer, 2 mg/ml enzyme, 37 C, 24 h)",1 ± 0.09 A415
